The results in this text go back to US20090191208A1 (INOTEK PHARMACEUTICALS, published 2009).

Test [1] concerns the target T1, Salmonella muenchen Flagellin (supplied by Inotek) (Salmonella muenchen, UniProt P06177 2-505).
T1 sequence: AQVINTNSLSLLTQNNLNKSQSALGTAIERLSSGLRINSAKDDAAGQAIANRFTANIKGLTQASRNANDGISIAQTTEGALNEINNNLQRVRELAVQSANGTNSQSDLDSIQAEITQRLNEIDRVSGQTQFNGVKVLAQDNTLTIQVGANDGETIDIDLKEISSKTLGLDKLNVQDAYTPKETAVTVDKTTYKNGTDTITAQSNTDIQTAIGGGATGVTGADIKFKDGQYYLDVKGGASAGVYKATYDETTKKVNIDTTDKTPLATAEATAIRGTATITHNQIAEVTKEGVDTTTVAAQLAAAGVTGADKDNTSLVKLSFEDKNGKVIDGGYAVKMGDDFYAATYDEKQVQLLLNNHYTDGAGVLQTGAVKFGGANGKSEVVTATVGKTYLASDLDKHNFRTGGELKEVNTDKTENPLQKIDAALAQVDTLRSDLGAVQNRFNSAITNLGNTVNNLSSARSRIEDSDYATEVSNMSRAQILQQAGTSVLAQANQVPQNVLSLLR
The experiment in a line: competition ELISA on plate-coated S. muenchen flagellin; competitor biotinylated mAb 741 at 0.6 µg/ml; mouse control antibody. On the technique in general: In an ELISA, binding on a coated surface is turned into a signal by an enzyme label.

The target of test [2] is T2, Salmonella flagellin (Salmonella, UniProt P06177 2-505, limits assumed).
T2 sequence: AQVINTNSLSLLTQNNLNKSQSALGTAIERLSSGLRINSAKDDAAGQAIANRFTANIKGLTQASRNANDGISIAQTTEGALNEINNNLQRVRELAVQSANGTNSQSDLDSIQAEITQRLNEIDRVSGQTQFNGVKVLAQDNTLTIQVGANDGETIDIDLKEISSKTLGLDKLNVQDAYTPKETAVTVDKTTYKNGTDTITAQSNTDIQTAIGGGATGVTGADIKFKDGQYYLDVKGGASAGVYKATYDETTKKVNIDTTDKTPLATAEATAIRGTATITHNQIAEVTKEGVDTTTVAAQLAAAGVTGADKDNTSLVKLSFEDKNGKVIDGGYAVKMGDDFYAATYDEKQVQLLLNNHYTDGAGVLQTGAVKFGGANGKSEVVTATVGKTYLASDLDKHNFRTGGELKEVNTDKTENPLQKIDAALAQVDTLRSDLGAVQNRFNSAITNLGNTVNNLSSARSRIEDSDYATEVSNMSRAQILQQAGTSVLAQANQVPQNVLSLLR
The experiment in a line: BIACore (SPR); Salmonella flagellin.

The target in test [3] is T3, recombinant SM flagellin protein (a/a 1-156) (Salmonella muenchen, UniProt P06177 1-156).
T3 construct: The antigen is amino acids 1-156 of S. muenchen flagellin, expressed in E. coli from pET 30C behind the His tag; also called recombinant S. muenchen flagellin; fusion protein; not shown: N-terminal His tag and vector-encoded residues of pET 30C
T3 sequence: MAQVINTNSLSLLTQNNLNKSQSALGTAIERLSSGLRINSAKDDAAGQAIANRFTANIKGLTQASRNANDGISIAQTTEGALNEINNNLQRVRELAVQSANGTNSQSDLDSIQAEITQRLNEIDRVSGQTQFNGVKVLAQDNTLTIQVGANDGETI
The experiment in a line: ELISA of hybridoma supernatants for anti-SM flagellin reactivity.

For test [4], the target named is T4, Pseudomonas flagellin (Pseudomonas, UniProt P21184 2-394).
T4 chain: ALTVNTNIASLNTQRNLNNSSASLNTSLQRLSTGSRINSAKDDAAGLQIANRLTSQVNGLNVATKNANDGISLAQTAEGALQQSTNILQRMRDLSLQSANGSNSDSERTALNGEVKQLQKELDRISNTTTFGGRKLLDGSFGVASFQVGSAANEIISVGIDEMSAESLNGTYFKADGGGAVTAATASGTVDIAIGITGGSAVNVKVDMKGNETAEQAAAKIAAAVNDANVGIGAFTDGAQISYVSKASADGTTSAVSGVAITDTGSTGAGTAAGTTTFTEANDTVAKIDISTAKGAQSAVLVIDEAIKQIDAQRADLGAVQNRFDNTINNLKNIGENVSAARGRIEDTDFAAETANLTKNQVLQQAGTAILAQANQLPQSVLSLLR
The experiment in a line: BIACore (SPR); Pseudomonas flagellin.

B1: murine mAb 741 (antibody, V domains shown)
VH: QVQLQQSGAELVGPGASVTLSCKASGHTFTDYEMHWVKQTPVHGLEWIGGIDPETGGTAYNQKLKGEATLTADKSSNTAYMELRSLTSEDSAVYYCTIYLDYWGRGTTLTVSS
VL: QIVLTQSPAIMSASPGEKVTMTCSANSSINYMHWYQQKPGTSPKRWIYDTTILASGVPARFSGSGSGTSYSLTISSMEAEDAATYYCHQRSSYPFTFGSGTKLEIK
notes: also called mouse control antibody
On to B1, for which, in test [1], the IC50 stood at 1.9 µg/mL.

B2: human mAb 763 (antibody, V domains shown)
VH: EVQLLESGGALVQPGGSLRLSCAASGFTFSSYAMSWARQAPGKGLEWLSGISGSADNTYYAESVKGRFTTSRDNSMNMLYLQMNSLRDEDTAFYYCAKGDQDRGPLEFWGQGTLVTVSS
VL: SYELTQPPSVSVSPGQTARITCSGDALPKQYAYWYQQKPGQAPVLLIYQDTKRPSGIPERFSGSSSGTTVALTISGVQAEDEADYYCQSADSNDSYYVFGTGTKVTVL
Regarding B2, the Kd in test [2] is approximately 0.1 nM; in test [4], approximately 1000 nM. For the same molecule, in test [3], the binding result is recorded as “binds”.

In general, IC50 refers to the point on the concentration scale where inhibition reaches its midpoint. Higher therefore signals lower potency. In general, Kd refers to the free concentration of one partner at which half of the binding sites on the other are occupied at equilibrium, for simple one-to-one binding. High values mean a looser complex, low ones a tighter complex.
